To fix the notation:
B1: TPR 5TU (parent)
chain: GGAUCUUCUCGAUCUAACAAAAAAGACAAAUCUGCCACAAAGCUUGAGAGCAUCUUCGGAUGCAGAGGCGGCAGCCUUCGGUGGCGCGAUAGCGCCAACGUUCUCAACUAUGACACGCAAAACGCGUGCUCCGUUGAAUGGAGUUUAUCAUG

The text below walks through data of the RNAGym collection of RNA variant scans (doi:10.1073/pnas.2313332121).

Fewer inactive variants are shown than the library holds.

The data set covers variants of B1. The experiment in a line: polymerase ribozyme fitness, log enrichment relative to wild type (log ratio); higher = more active; in vitro selection for triplet polymerase activity. Summed up: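 Each subunit of a heterodimeric triplet polymerase ribozyme was represented by a PCR-built, transcribed mutant library that underwent triplicate single-round in vitro selection with frozen incubation at −7 °C. Extended constructs were recovered by gel excision, streptavidin-bead capture and RT-PCR, and Illumina sequencing of input and output libraries kept genotypes with ≥10 input reads and ≥1 read per output. Fitness is the logarithm of genotype enrichment relative to wild-type enrichment, from inverse-variance-weighted replicate averages, with a logarithm base of 2.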
As to GGAUGUUCUCGACCUACCAAAAAAGACAAAUCUGCCACAAAGCUUGAGAGCAUCUUCGGAUGCAGAGGCGGCAGCCUUCGGUUGCGCGAUAGCGCCAACGUUCUCAACUAUGACACGCAAAACGCGUGCUCCGCUGCAUGGAGUUUAUCAUG [C5G U13C A17C G83U U134C A137C], the “polymerase ribozyme fitness (log ratio)” value was no more than -4.2.
Consider GGAUGUUCUCGACCUAAUAAAAAAGACAAAUCUGCCACAAAGCUUUAGAGCAUCUUCGGAUGCAGAGGCGGCAGCCUUCGGUGGCGCGAUAGCGCCAACGUUCUCAAUUAUGACACGCAAAGCGCGUGCUCCGUUGAAUGGAGUUUAUCAUG [C5G U13C C18U G46U C108U A122G], for which the “polymerase ribozyme fitness (log ratio)” value was no more than -4.2.
For GGAUGUUCUCGAUCUAACAAAAAAGACAAAUCUGCCACAAAGCUUGAGAGCAGAUUCGGAUGCAGAGGCGGCAGCCUUCGGUGGCGCGAUAGCGCUAACGUUCUCAACUAUGACACGCAAAACGCGUGCUCCGUAGAAUGGAGUUUAUCAUG [C5G U53G C54A C96U U135A], the “polymerase ribozyme fitness (log ratio)” value is -3.79.
For GGAUUUUCUCGUUCUAACAAAAAAGACAAAUCUGCCACAAAGCUUGAGAGCAUCUUCGGAUGCAGAGGCGGCAGCCUUCGGUGUCGCGAUAGCGCCAACGUUCUCAACUAUGACACGCAAAACGCGUGCUCCGUUGAAUGGAGUUUAUCAUG [C5U A12U G84U], the “polymerase ribozyme fitness (log ratio)” value is -1.92.
The figure for GGAUGUUCUCGAUCUAACAAAAAAGACAAAUCUGCCACAAAGCUUGAGAGCAACUUCGGAUGCAGAGGCGGCAGCCUUCGGUGGCGCGAUAGCGCCAACGUUCUCAACUAUGACACGCAAAACGCGUGCUCCGUUGAAUGGAGUUUAUCAUG [C5G U53A] is -1.8; for GGAUUUUCUCGAUCUUACAAAAAAGUCAAAUCUGCCACAAAGCAUGAGAGCGUCUUCGGAUGCAGAGGCGGCAGCCUUCGGUGGCGCGAUACCGCCAACGUUCUCAACUAUGACACGCAAAACGCGUGCUCCGUUGAAUGGAGUUUAUCAUG [C5U A16U A26U U44A A52G G92C] it is no more than -4.2.
In the case of GGAUGUGCUCGCUCUAACAAAUAAGACAAAUCUGCCACAAAGCUUGAGAGCAUCUUCGGAUGCAGAGGCGGCAGCCUUCGGUGGCGCGACAGCGCCAACGUUCUCAACUAUGACACGCAAAACGCGUGCUCCGUUGAAUGGAGAUUAUCAUG [C5G U7G A12C A22U U90C U144A], the “polymerase ribozyme fitness (log ratio)” value was no more than -4.2.
Consider GGAUUUUCUCGUUCUAAGAAAAAAGACAAAUCUGCCACAAAGCUUGAGAGCAUCUUCGGAUGCAGAGGCCGCAGCCUUCAGUGGCGCGAUAGGGUCAGCGUUCUCAACUAUGACACGCAAAACGCGUGCUCCGUUGAAUGGAGGUUAUCAUG [C5U A12U C18G G70C G80A C93G C95U A98G U144G], for which the “polymerase ribozyme fitness (log ratio)” value is no more than -4.2.
As to GGAUGUUCUCGAUCUAACAAAAAAGACAAAUCUGCCACAAAGCUUGAGAGCAUCGUCGGAUGCAGAGGCGGCAGCCUUCGGUGGUGCGAUAGCGCCAAAGUUCUCAACUAUGACACGCAAAACGCGUGCUCCGUUGAAUGGAGUUUAUCAUG [C5G U55G C85U C99A], the “polymerase ribozyme fitness (log ratio)” value was -2.86.
In the case of GGAUGUUCGCGAUCUAACAAAAAAGACAAAUCUGCCACAAAGCUUGAGAGCAUCUUCGGAUGCAGAGGCGGCAGCCUUCGGUGGCACGAUAGCGCCAACGUUCUCAACUAUGACACGCAAAACGCGUGCUCCGUUGAAUGGAGUUUAUCAUG [C5G U9G G86A], the “polymerase ribozyme fitness (log ratio)” value is -4.
For the variant GGAUGUUCUCGAUCUAACAAAAAAGACAAAUCUGCCACAAAGCUUGAGAGCAUCAUCGGAUGCAGAGGCGGCAGCCUUCGGUGGCGCGAUAGUGCCAACGUUCUCAACUAUGACACGAAAAACGCGUGCUCCGUUGAAUGGAGUUUAUCAUG [C5G U55A C93U C118A], the “polymerase ribozyme fitness (log ratio)” value is -3.5.
Consider GGAUGUUCUCGAUCUAACAAAAAAGACAAAUCUGCCACAAAGCUUGAGAGCAUCAUCGGAUGCAGAGGCGGCAGCCUUCGGUGGCGCGAUAGCGCCAACGUUCUCAACUAUGACACGCAAAACGCGUGCUCCGUUGAAUGGAGUUUAUCAUG [C5G U55A], for which the “polymerase ribozyme fitness (log ratio)” value is -0.729.
In the case of GGAUUUUCUCGUUCUAACAAAAAAGACAACUCUGCCACAAAGCUUGAGAGCAUCUUCGCAUGCAGAGGCGGCAGCCUUCGGUGGCGCGAUAGCGCCAACGUUCUCAACUAUGACACGCAAAACGGUUGCUCCGUUGAAUGGAGUUUAUCAUG [C5U A12U A30C G59C C125G G126U], the “polymerase ribozyme fitness (log ratio)” value was no more than -4.2.
For GGAUGUUCCCGAUCUCACAAAAAAGACGAUUGUGACACAAAGCUUGAGAGCAUCUUCGUAUGCAGAGGCGGCAGCCUUCGGUGGCGCGAUAUCGCCAACGUUCUUAACUAUGACACGCAAAACGCGUGCUCCGUUGAAUGGACUUUAUCAUG [C5G U9C A16C A28G A30U C32G C35A G59U G92U C105U G143C], the “polymerase ribozyme fitness (log ratio)” value is no more than -4.2.
The figure for GGAUGUUCUCGAUCUAACAAAAAAGACAAAUCUGCCACAAAGCUUGAGAGCAUCUUCGGAUGCAGAGGCGGCAGCCUUCGGUGGCGCGAUAGCGCCAACGGUCUCAACUAUGACACGCAAAACGCGUGCUCCGUUGAAUGGAGUUUAUCAUG [C5G U101G] is 0.0588; for GGAUGUUCACGAUCUAACAAAAAAGACAAAUCUGCCACAAAGCUUGAGAGCAUUUUCGGAUGCAGAGGCGGCAGCCUUCGGUGGCGCGAUAGCGCCAACGUUCUCAACUAUGACACGCAAAACGCGUGCUCCGUUGAAUGGAGUUCAUCAUG [C5G U9A C54U U146C] it is -2.79; for GGAUGUUCUCGAUCUAACAAAAAAGACAAAUCUGCCACAAAGCUUGAGAGCAUCUACGGAUGCAGAGGCGGCAGCCUUCGGUGUCGCGAUAGCGCCAACGUUCUCAACUAUGACACGCAAAACGCGUGCUCCGUUGAAUGGAGAUUAUCAUG [C5G U56A G84U U144A] it is -3.4.
Regarding GGAUGUUCUCGAUCUAACAAAAAAGACAAAUCCGCCACAAAGCUUGAGACCAUCUUUGGAUGCAGAGGCGACUGCCUUCGGUGGCGCGAUUGCGCCAACGUUCUCAACUAUGACACGCAAAACGCGUGCUCCGUUGAAUGGAGUUUAUCAUG [C5G U33C G50C C57U G71A A73U A91U], the “polymerase ribozyme fitness (log ratio)” value was no more than -4.2.
Consider GGAUUUUCUCGAUCUCACAAAAAAGACAAAUCUGCCACAAAGCUUGAGAGUAUCUUCGGAUGCAGAGGCGGCAGCCUUCGGUGGCGCGAUAGCGCCAACGUUCUCAACUAUGACACGCAAAACGCGUGCUCCGUUGAAUGGAGUUUAUCAUG [C5U A16C C51U], for which the “polymerase ribozyme fitness (log ratio)” value is -1.73.
